Results as given in patent US20230357348A1 (AstraZeneca / MedImmune, published 2023).
Starred links: 1 amine or outer side, 2 acyl side, 3 side chain; linkers in the order of their positions; H or OH if unused. Non-standard residues stand in square brackets, D forms with d. Groups on a side chain read outwards from the residue. No end group written: not given here. *: point of attachment. C20 diacid = O=C(O)CCCCCCCCCCCCCCCCCCC(=O)*; C18 diacid = O=C(O)CCCCCCCCCCCCCCCCC(=O)*; γGlu = O=C(O)[C@H](CCC(=O)[*:2])N[*:1]; αMeF = C[C@](N)(Cc1ccccc1)C(=O)O; AEEA = NCCOCCOCC(=O)O; Aib = CC(C)(N)C(=O)O

Experiments:
[1] = target: human glucagon receptor (hGCGR) (human, UniProt P47871 26-477); experiment: cell-based or functional assay
human glucagon receptor (hGCGR), sequence (P47871 26-477): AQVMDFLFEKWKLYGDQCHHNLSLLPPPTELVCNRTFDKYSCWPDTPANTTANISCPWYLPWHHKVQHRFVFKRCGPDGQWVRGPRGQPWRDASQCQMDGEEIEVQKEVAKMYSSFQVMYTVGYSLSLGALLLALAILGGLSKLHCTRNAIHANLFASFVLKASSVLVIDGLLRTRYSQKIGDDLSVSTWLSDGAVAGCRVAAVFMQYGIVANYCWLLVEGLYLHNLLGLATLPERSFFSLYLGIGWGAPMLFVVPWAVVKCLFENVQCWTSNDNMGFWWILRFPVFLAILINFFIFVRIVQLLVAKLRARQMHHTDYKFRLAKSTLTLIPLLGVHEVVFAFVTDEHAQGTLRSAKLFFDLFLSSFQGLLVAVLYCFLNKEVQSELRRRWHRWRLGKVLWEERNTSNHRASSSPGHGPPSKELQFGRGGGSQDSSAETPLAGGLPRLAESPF

[2] = target: human GLP-1 receptor (hGLP-1R) (human, UniProt P43220 24-463); experiment: cell-based or functional assay

Row | Binder | hGluc-R EC50 (pM) [1] | hGLP-1R EC50 (pM) [2]
1 | H[Aib]QGTFTSDVSK[αMeF]LDSK([γGlu-γGlu-AEEA-AEEA-γGlu-γGlu-C18 diacid])RARDFVRWLLE[Aib]G-OH (N-terminus assumed; SMILES CC(C)C[C@H](NC(=O)[C@H](Cc1c[nH]c2ccccc12)NC(=O)[C@H](CCCNC(=N)N)NC(=O)[C@@H](NC(=O)[C@H](Cc1ccccc1)NC(=O)[C@H](CC(=O)O)NC(=O)[C@H](CCCNC(=N)N)NC(=O)[C@H](C)NC(=O)[C@H](CCCNC(=N)N)NC(=O)[C@H](CCCCNC(=O)CC[C@H](NC(=O)CC[C@H](NC(=O)COCCOCCNC(=O)COCCOCCNC(=O)CC[C@H](NC(=O)CC[C@H](NC(=O)CCCCCCCCCCCCCCCCC(=O)O)C(=O)O)C(=O)O)C(=O)O)C(=O)O)NC(=O)[C@H](CO)NC(=O)[C@H](CC(=O)O)NC(=O)[C@H](CC(C)C)NC(=O)[C@](C)(Cc1ccccc1)NC(=O)[C@H](CCCCN)NC(=O)[C@H](CO)NC(=O)[C@@H](NC(=O)[C@H](CC(=O)O)NC(=O)[C@H](CO)NC(=O)[C@@H](NC(=O)[C@H](Cc1ccccc1)NC(=O)[C@@H](NC(=O)CNC(=O)[C@H](CCC(N)=O)NC(=O)C(C)(C)NC(=O)[C@@H](N)Cc1c[nH]cn1)[C@@H](C)O)[C@@H](C)O)C(C)C)C(C)C)C(=O)N[C@@H](CC(C)C)C(=O)N[C@@H](CCC(=O)O)C(=O)NC(C)(C)C(=O)NCC(=O)O) [Peptide 144] | 702 pM | 45.2 pM
2 | H[Aib]QGTFTSDVSK[αMeF]LDSK([AEEA-AEEA-γGlu-C18 diacid])RARDFVAWLLE[Aib]G-OH (N-terminus assumed; SMILES CC(C)C[C@H](NC(=O)[C@H](Cc1c[nH]c2ccccc12)NC(=O)[C@H](C)NC(=O)[C@@H](NC(=O)[C@H](Cc1ccccc1)NC(=O)[C@H](CC(=O)O)NC(=O)[C@H](CCCNC(=N)N)NC(=O)[C@H](C)NC(=O)[C@H](CCCNC(=N)N)NC(=O)[C@H](CCCCNC(=O)COCCOCCNC(=O)COCCOCCNC(=O)CC[C@H](NC(=O)CCCCCCCCCCCCCCCCC(=O)O)C(=O)O)NC(=O)[C@H](CO)NC(=O)[C@H](CC(=O)O)NC(=O)[C@H](CC(C)C)NC(=O)[C@](C)(Cc1ccccc1)NC(=O)[C@H](CCCCN)NC(=O)[C@H](CO)NC(=O)[C@@H](NC(=O)[C@H](CC(=O)O)NC(=O)[C@H](CO)NC(=O)[C@@H](NC(=O)[C@H](Cc1ccccc1)NC(=O)[C@@H](NC(=O)CNC(=O)[C@H](CCC(N)=O)NC(=O)C(C)(C)NC(=O)[C@@H](N)Cc1c[nH]cn1)[C@@H](C)O)[C@@H](C)O)C(C)C)C(C)C)C(=O)N[C@@H](CC(C)C)C(=O)N[C@@H](CCC(=O)O)C(=O)NC(C)(C)C(=O)NCC(=O)O) [Peptide 142] | 108 pM | 59.4 pM
3 | H[Aib]QGTFTSDVSK[αMeF]LDSK([γGlu-γGlu-AEEA-AEEA-γGlu-γGlu-C18 diacid])RARDFVRWLLE[Aib]G-OH (N-terminus assumed; SMILES CC(C)C[C@H](NC(=O)[C@H](Cc1c[nH]c2ccccc12)NC(=O)[C@H](CCCNC(=N)N)NC(=O)[C@@H](NC(=O)[C@H](Cc1ccccc1)NC(=O)[C@H](CC(=O)O)NC(=O)[C@H](CCCNC(=N)N)NC(=O)[C@H](C)NC(=O)[C@H](CCCNC(=N)N)NC(=O)[C@H](CCCCNC(=O)CC[C@H](NC(=O)CC[C@H](NC(=O)COCCOCCNC(=O)COCCOCCNC(=O)CC[C@H](NC(=O)CC[C@H](NC(=O)CCCCCCCCCCCCCCCCC(=O)O)C(=O)O)C(=O)O)C(=O)O)C(=O)O)NC(=O)[C@H](CO)NC(=O)[C@H](CC(=O)O)NC(=O)[C@H](CC(C)C)NC(=O)[C@](C)(Cc1ccccc1)NC(=O)[C@H](CCCCN)NC(=O)[C@H](CO)NC(=O)[C@@H](NC(=O)[C@H](CC(=O)O)NC(=O)[C@H](CO)NC(=O)[C@@H](NC(=O)[C@H](Cc1ccccc1)NC(=O)[C@@H](NC(=O)CNC(=O)[C@H](CCC(N)=O)NC(=O)C(C)(C)NC(=O)[C@@H](N)Cc1c[nH]cn1)[C@@H](C)O)[C@@H](C)O)C(C)C)C(C)C)C(=O)N[C@@H](CC(C)C)C(=O)N[C@@H](CCC(=O)O)C(=O)NC(C)(C)C(=O)NCC(=O)O) [Peptide 136] | 509 pM | 45.2 pM
4 | H[Aib]QGTFTSDVSK[αMeF]LDSK([AEEA-AEEA-γGlu-C18 diacid])RAQDFVAWLLE[Aib]G-OH (N-terminus assumed; SMILES CC(C)C[C@H](NC(=O)[C@H](Cc1c[nH]c2ccccc12)NC(=O)[C@H](C)NC(=O)[C@@H](NC(=O)[C@H](Cc1ccccc1)NC(=O)[C@H](CC(=O)O)NC(=O)[C@H](CCC(N)=O)NC(=O)[C@H](C)NC(=O)[C@H](CCCNC(=N)N)NC(=O)[C@H](CCCCNC(=O)COCCOCCNC(=O)COCCOCCNC(=O)CC[C@H](NC(=O)CCCCCCCCCCCCCCCCC(=O)O)C(=O)O)NC(=O)[C@H](CO)NC(=O)[C@H](CC(=O)O)NC(=O)[C@H](CC(C)C)NC(=O)[C@](C)(Cc1ccccc1)NC(=O)[C@H](CCCCN)NC(=O)[C@H](CO)NC(=O)[C@@H](NC(=O)[C@H](CC(=O)O)NC(=O)[C@H](CO)NC(=O)[C@@H](NC(=O)[C@H](Cc1ccccc1)NC(=O)[C@@H](NC(=O)CNC(=O)[C@H](CCC(N)=O)NC(=O)C(C)(C)NC(=O)[C@@H](N)Cc1c[nH]cn1)[C@@H](C)O)[C@@H](C)O)C(C)C)C(C)C)C(=O)N[C@@H](CC(C)C)C(=O)N[C@@H](CCC(=O)O)C(=O)NC(C)(C)C(=O)NCC(=O)O) [Peptide 141] | 392 pM | 264 pM
5 | H[Aib]QGTFTSDVSK[αMeF]LDSK([AEEA-AEEA-γGlu-C18 diacid])RARDFVQWLLE[Aib]G-OH (N-terminus assumed; SMILES CC(C)C[C@H](NC(=O)[C@H](Cc1c[nH]c2ccccc12)NC(=O)[C@H](CCC(N)=O)NC(=O)[C@@H](NC(=O)[C@H](Cc1ccccc1)NC(=O)[C@H](CC(=O)O)NC(=O)[C@H](CCCNC(=N)N)NC(=O)[C@H](C)NC(=O)[C@H](CCCNC(=N)N)NC(=O)[C@H](CCCCNC(=O)COCCOCCNC(=O)COCCOCCNC(=O)CC[C@H](NC(=O)CCCCCCCCCCCCCCCCC(=O)O)C(=O)O)NC(=O)[C@H](CO)NC(=O)[C@H](CC(=O)O)NC(=O)[C@H](CC(C)C)NC(=O)[C@](C)(Cc1ccccc1)NC(=O)[C@H](CCCCN)NC(=O)[C@H](CO)NC(=O)[C@@H](NC(=O)[C@H](CC(=O)O)NC(=O)[C@H](CO)NC(=O)[C@@H](NC(=O)[C@H](Cc1ccccc1)NC(=O)[C@@H](NC(=O)CNC(=O)[C@H](CCC(N)=O)NC(=O)C(C)(C)NC(=O)[C@@H](N)Cc1c[nH]cn1)[C@@H](C)O)[C@@H](C)O)C(C)C)C(C)C)C(=O)N[C@@H](CC(C)C)C(=O)N[C@@H](CCC(=O)O)C(=O)NC(C)(C)C(=O)NCC(=O)O) [Peptide 143] | 32.6 pM | 19.1 pM
6 | H[Aib]QGTFTSDVSK[αMeF]LDSK([γGlu-γGlu-AEEA-AEEA-γGlu-γGlu-C18 diacid])RAQDFVRWLLE[Aib]G-OH (N-terminus assumed; SMILES CC(C)C[C@H](NC(=O)[C@H](Cc1c[nH]c2ccccc12)NC(=O)[C@H](CCCNC(=N)N)NC(=O)[C@@H](NC(=O)[C@H](Cc1ccccc1)NC(=O)[C@H](CC(=O)O)NC(=O)[C@H](CCC(N)=O)NC(=O)[C@H](C)NC(=O)[C@H](CCCNC(=N)N)NC(=O)[C@H](CCCCNC(=O)CC[C@H](NC(=O)CC[C@H](NC(=O)COCCOCCNC(=O)COCCOCCNC(=O)CC[C@H](NC(=O)CC[C@H](NC(=O)CCCCCCCCCCCCCCCCC(=O)O)C(=O)O)C(=O)O)C(=O)O)C(=O)O)NC(=O)[C@H](CO)NC(=O)[C@H](CC(=O)O)NC(=O)[C@H](CC(C)C)NC(=O)[C@](C)(Cc1ccccc1)NC(=O)[C@H](CCCCN)NC(=O)[C@H](CO)NC(=O)[C@@H](NC(=O)[C@H](CC(=O)O)NC(=O)[C@H](CO)NC(=O)[C@@H](NC(=O)[C@H](Cc1ccccc1)NC(=O)[C@@H](NC(=O)CNC(=O)[C@H](CCC(N)=O)NC(=O)C(C)(C)NC(=O)[C@@H](N)Cc1c[nH]cn1)[C@@H](C)O)[C@@H](C)O)C(C)C)C(C)C)C(=O)N[C@@H](CC(C)C)C(=O)N[C@@H](CCC(=O)O)C(=O)NC(C)(C)C(=O)NCC(=O)O) [Peptide 138] | 184 pM | 104 pM
7 | H[Aib]QGTFTSDVSK[αMeF]LDSK([γGlu-γGlu-AEEA-AEEA-γGlu-γGlu-C20 diacid])RAQDFVRWLLE[Aib]G-OH [Peptide 139] | 984 pM | 630 pM
8 | H[Aib]QGTFTSDVSK[αMeF]LDSK([γGlu-γGlu-AEEA-AEEA-γGlu-γGlu-C18 diacid])RAQDFVRWLLEG[Aib]-OH (N-terminus assumed; SMILES CC(C)C[C@H](NC(=O)[C@H](CC(C)C)NC(=O)[C@H](Cc1c[nH]c2ccccc12)NC(=O)[C@H](CCCNC(=N)N)NC(=O)[C@@H](NC(=O)[C@H](Cc1ccccc1)NC(=O)[C@H](CC(=O)O)NC(=O)[C@H](CCC(N)=O)NC(=O)[C@H](C)NC(=O)[C@H](CCCNC(=N)N)NC(=O)[C@H](CCCCNC(=O)CC[C@H](NC(=O)CC[C@H](NC(=O)COCCOCCNC(=O)COCCOCCNC(=O)CC[C@H](NC(=O)CC[C@H](NC(=O)CCCCCCCCCCCCCCCCC(=O)O)C(=O)O)C(=O)O)C(=O)O)C(=O)O)NC(=O)[C@H](CO)NC(=O)[C@H](CC(=O)O)NC(=O)[C@H](CC(C)C)NC(=O)[C@](C)(Cc1ccccc1)NC(=O)[C@H](CCCCN)NC(=O)[C@H](CO)NC(=O)[C@@H](NC(=O)[C@H](CC(=O)O)NC(=O)[C@H](CO)NC(=O)[C@@H](NC(=O)[C@H](Cc1ccccc1)NC(=O)[C@@H](NC(=O)CNC(=O)[C@H](CCC(N)=O)NC(=O)C(C)(C)NC(=O)[C@@H](N)Cc1c[nH]cn1)[C@@H](C)O)[C@@H](C)O)C(C)C)C(C)C)C(=O)N[C@@H](CCC(=O)O)C(=O)NCC(=O)NC(C)(C)C(=O)O) [Peptide 137] | 268 pM | 143 pM
